Key:
[1] = target: Gerbich human erythrocytes (exon 3 deletion of glycophorin C/D: shortened glycophorin C, absent glycophorin D); assay: region II on COS cells, erythrocyte-binding assay
[2] = target: normal human erythrocytes (untreated); assay: region II on COS cells, erythrocyte-binding assay
human erythrocytes = assay: Modified erythrocyte binding assay: absorption/elution of metabolically labeled parasite proteins followed by immunoprecipitation; conditions: for Binding to En(a-) erythrocytes: which lack glycophorin A; for Binding to S-s-U- erythrocytes: S-s-U- erythrocytes that lacked glycophorin B; for Elution from Gerbich and normal erythrocytes: fresh Gerbich erythrocytes vs normal erythrocytes; for Absorption from culture supernatant by Gerbich cells compared with normal erythrocytes: fresh blood from a person with the Gerbich mutation, two separate experiments; for Binding to neuraminidase-treated human erythrocytes / Binding to trypsin-treated human erythrocytes: Dd2/Nm culture supernatant; for Binding to Gerbich erythrocytes: pellet-frozen Gerbich (-2, -3, -4) erythrocytes; for Binding to Yus erythrocytes: pellet-frozen Yus (-2, -3, -4) erythrocytes
Description: We have developed a new assay for measuring binding of BAEBL to erythrocytes. Previously, EBA-175 was identified in parasite proteins bound and eluted from human erythrocytes. Its identification was based on the fact that it was the most abundant and the highest molecular weight protein eluted from these erythrocytes. Lower molecular weight proteins may be proteolytic fragments of EBA-175 or products of different genes. To positively identify BAEBL, we immunoprecipitated BAEBL from proteins eluted from erythrocytes with anti-region II and anti-region VI.
We also modified the protocol in that we identified proteins removed from the supernatant by erythrocyte absorption. We determined the different quantities of erythrocytes required to remove BAEBL from the parasite supernatant. […] The protein was largely removed by absorbing twice with 50 μl of packed erythrocytes for some culture supernatants and by only one absorbtion with 50 μl for other supernatants. Therefore, on some samples, we absorbed with 25 μl, 50 μl once, and 50 μl twice for comparison between normal erythrocytes and mutant erythrocytes or enzyme-treated erythrocytes. The protein was also eluted from the first 50 μl of packed erythrocytes used for absorption.
Blood was collected in 10% citrate-phosphate-dextrose (vol/vol) and stored for up to 4 weeks at 4° C. At the time of study, the erythrocytes were washed three times in incomplete media (RPMI-1640; Life Technologies, Rockville, Md.) with 25 mM HEPES and 0.36 mM hypoxanthine (Sigma, St. Louis, Mo.). For neuraminidase treatment, 5.5 ml of a 5% (vol/vol) suspension of the washed human erythrocytes in incomplete media were incubated twice with 3 milliunits of neuraminidase (Vibrio cholerae; CalBiochem, La Jolla, Calif.) for 2 hr at 37° C. each time. For trypsin treatment, washed human erythrocytes were incubated with 1 mg/ml of tosyl-phenylalanine-chloromethyl-ketone-treated trypsin (Sigma) for 2 hr at 37° C. After trypsin treatment, the cells were washed once in incomplete medium and incubated with 2 mg/ml soybean trypsin inhibitor (Sigma) for 10 min at room temperature. The cells were washed twice before use in a study.
The glycophorin A and glycophorin B null erythrocytes [En(a-) and S-s-U-, respectively and the glycophorin D null/glycophorin C modified erythrocytes (Gerbich cells) were frozen within a few days of receipt and thawed by the Red Cross method (Mallory, D. ed. 1993 Immunohematology Methods and Procedures American Red Cross, National Reference Laboratory, Rockville, Md., pp. 125-1-125-2). Blood from a Gerbich donor was collected in 10% (vol/vol) anticoagulant citrate-phosphate-dextrose.
Other glycophorin C/D mutant cells (Leach, Gerbich, and Yus cells) had been stored in liquid nitrogen as frozen pellets (Judd, W. J. 1994 in: Methods in Immunohematology Montgomery Scientific Publications Durham, N.C., pp. 188-190) and thawed directly into PBS at 37° C.
Soluble, metabolically labeled parasite proteins were obtained from culture supernatant of schizont-infected erythrocytes that released merozoites in the absence of uninfected erythrocytes. The parasites were left to lyse and release proteins into the culture supernatant. The Dd2/Nm clone of P. falciparum was cultured as previously described (Kaneko, O. et al. 2000 Mol Biochem Parasitol 110: […]) with the following exceptions. Schizont-infected erythrocytes (5×10^7 per ml of culture medium) were used during the metabolic labeling. The culture supernatant was ultracentrifuged in a Beckman Optima TLX Ultracentrifuge (Beckman, Fullerton, Calif.) at 40,000 rpm (98,600×g) for 10 min at 4° C. before storage at −70° C.
Proteins in the supernatant and in the diluted eluate were immunoprecipitated as previously described (Kaneko, O. et al. 2000 Mol Biochem Parasitol 110: 135-146) with the following exceptions. […]

[3] = system: RBC (normal, trypsin- or neuraminidase-treated, Gerbich-negative); assay: Erythrocyte-binding assay with BAEBL region II variants expressed on the surface of COS cells; type: cell-based, human
[4] = glycophorin C/D null erythrocytes of the Leach phenotype, preliminary experiments

## BAEBL region II variant VSTK, expressed on the surface of COS cells (ligand)
[1]
  percentage of binding to normal, untreated RBC: 0.9%
[2]
  COS cells with five or more attached RBC, total per coverslip (COS cells per coverslip): 65

B1: BAEBL: Plasmodium falciparum erythrocyte binding protein of the DBL-EBP family (SEQ ID NO: 2); here metabolically labeled protein from Dd2/Nm culture supernatant (protein, listed as Plasmodium falciparum)
chain: MKGYFNIYFLIPLIFLYNVIRINESIIGRTLYNRQDESSDISRVNSPELNNNHKTNIYDSDYEDVNNKLINSFVENKSVKKKRSLSFINNKTKSYDIIPPSYSYRNDKFNSLSENEDNSGNTNSNNFANTSEISIGKDNKQYTFIQKRTHLFACGIKRKSIKWICRENSEKITVCVPDRKIQLCVANFLNSRLETMEKFKEIFLISVNTEAKLLYNKNEGKDPSIFCNELRNSFSDFRSSFIGDDMDFGGNTDRVKGYINTKFSDYYKEKNVEKLNNIKKEWWEKNKANLWNHMIVNHKGNISKECAIIPAEEPQINLWIKEWNENFLMEKKRLFLNIKDKCVENKKYEACFGGCRLPCSSYTSFMKKSKTQMEVLTNLYKKKNSGVDKNNFLNDLFKKNNKNDLDDFFKNEKEYDDLCDCRYTATIIKSFLNGPAKNDVDIASQINVNDLRGFGCNYKSNNEKSWNCTGTFTNKFPGTCEPPRRQTLCLGRTYLLHRGHEEDYKEHLLGASIYEAQLLKYKYKEKDENALCSIIQNSYADLADIIKGSDIIKDYYGKKMEENLNKVNKDKKRNEESLKIFREKWWDENKENVWKVMSAVLKNKETCKDYDKFQKIPQFLRWFKEWGDDFCEKRKEKIYSFESFKVECKKKDCDENTCKNKCSEYKKWIDLKKSEYEKQVDKYTKDKNKKMYDNIDEVKNKEANVYLKEKSKECKDVNFDDKIFNESPNEYEDMCKKCDEIKYLNEIKYPKTKHDIYDIDTFSDTFGDGTPISINANINEQQSGKDTSNTGNSETSDSPVSHEPESDAAINVEKLSGDESSSETRGILDINDPSVTNNVNEVHDASNTQGSVSNTSDITNGHSESSLNRTTNAQDIKIGRSGNEQSDNQENSSHSSDNSGSLTIGQVPSEDNTQNTYDSQNPHRDTPNALASLPSDDKINEIEGFDSSRDSENGRGDTTSNTHDVRRTNIVSERRVNSHDFIRNGMANNNAHHQYITQIENNGIIRGQEESAGNSVNYKDNPKRSNFSSENDHKKNIQEYNSRDTKRVREEIIKLSKQNKCNNEYSMEYCTYSDERNSSPGPCSREERKKLCCQISDYCLKYFNFYSIEYYNCIKSEIKSPEYKCFKSEGQSSIPYFAAGGILVVIVLLLSSASRMGKSNEEYDIGESNIEATFEENNYLNKLSRIFNQEVQETNISDYSEYNYNEKNMY
modifications: metabolic label
notes: here metabolically labeled protein from Dd2/Nm culture supernatant
Human erythrocytes
  Binding to En(a-) erythrocytes: bound to these erythrocytes in a similar manner as to normal erythrocytes
  Binding to S-s-U- erythrocytes: bound
  Elution from Gerbich and normal erythrocytes: eluted from normal but not Gerbich erythrocytes
  Absorption from culture supernatant by Gerbich cells compared with normal erythrocytes: required twice as many Gerbich cells
  Binding to neuraminidase-treated human erythrocytes: eliminated the binding
  Binding to Gerbich erythrocytes: reduced binding
  Binding to Yus erythrocytes: reduced binding
  Binding to trypsin-treated human erythrocytes: eliminated the binding
Human erythrocytes; [4]
  Detection in eluate of Leach erythrocytes: never detected
  Detection in parasite supernatant absorbed with Leach erythrocytes: not detected
Human erythrocytes; neuraminidase-treated normal erythrocytes
  Elution from neuraminidase-treated normal erythrocytes: did not elute

B2: EBA-175: P. falciparum receptor that binds sialic acid and the peptide backbone of glycophorin A on erythrocytes (protein)
chain: ARNEYDIKENEKFLDVYKEKFNELDKKKYGNVQKTDKKIFTFIENKLDILNNSKFNKRWKSYGTPDNIDKNMSLINKHNNEEMFNNNYQSFLSTSSLIKQNKYVPINAVRVSRILSFLDSRINNGRNTSSNNEVLSNCREKRKGMKWDCKKKNDRSNYVCIPDRRIQLCIVNLSIIKTYTKETMKDHFIEASKKESQLLLKKNDNKYNSKFCNDLKNSFLDYGHLAMGNDMDFGGYSTKAENKIQEVFKGAHGEISEHKIKNFRKEWWNEFREKLWEAMLSEHKNNINNCKNIPQEELQITQWIKEWHGEFLLERDNRSKLPKSKCKNNTLYEACEKECIDPCMKYRDWIIRSKFEWHTLSKEYETQKVPKENAENYLIKISENKNDAKVSLLLNNCDAEYSKYCDCKHTTTLVKSVLNGNDNTIKEKREHIDLDDFSKFGCDKNSVDTNTKVWECKNPYILSTKDVCVPPRRQELCLGNIDRIYDKNLLMIKEHILAIAIYESRILKRKYKNKDDKEVCKIINKTFADIRDIIGGTDYWNDLSNRKLVGKINTNSKYVHRNKKNDKLFRDEWWKVIKKDVWNVISWVFKDKTVCKEDDIENIPQFFRWFSEWGDDYCQDKTKMIETLKVECKEKPCEDDNCKSKCNSYKEWISKKKEEYNKQAKQYQEYQKGNNYKMYSEFKSIKPEVYLKKYSEKCSNLNFEDEFKEELHSDYKNKCTMCPEVKDVPISIIRNNEQTSQEAVPEENTEIAHRTETPSISEGPKGNEQKERDDDSLSKISVSPENSRPETDAKDTSNLLKLKGDVDISMPKAVIGSSPNDNINVTEQGDNISGVNSKPLSDDVRPDKKELEDQNSDESEETVVNHISKSPSINNGDDSGSGSATVSESSSSNTGLSIDDDRNGDTFVRTQDTANTEDVIRKENADKDEDEKGADEERHSTSESLSSPEEKMLTDNEGGNSLNHEEVKEHTSNSDNVQQSGGIVNMNVEKELKDTLENPSSSLDEGKAHEELSEPNLSSDQDMSNTPGPLDNTSEETTERISNNEYKVNEREDERTLTKEYEDIVLKSHMNRESDDGELYDENSDLSTVNDESEDAEAKMKGNDTSEMSHNSSQHIESDQQKNDMKTVGDLGTTHVQNEISVPVTGEIDEKLRESKESKIHKAEEERLSHTDIHKINPEDRNSNTLHLKDIRNEENERHLTNQNINISQERDLQKHGFHTMNNLHGDGVSERSQINHSHHGNRQDRGGNSGNVLNMRSNNNNFNNIPSRYNLYDKKLDLDLYENRNDSTTKELIKKLAEINKCENEISVKYCDHMIHEEIPLKTCTKEKTRNLCCAVSDYCMSYFTYDSEEYYNCTKREFDDPSYTCFRKEAFSSMIFKFLITNKIYYYFYTYKTAKVTIKKINFSLIFFFFFSF
Human erythrocytes
  Binding to En(a-) erythrocytes: failed to bind
  Binding to S-s-U- erythrocytes: bound
  Elution from Gerbich and normal erythrocytes: eluted from both Gerbich and normal erythrocytes
  Absorption from culture supernatant by Gerbich cells compared with normal erythrocytes: bound equally well to Gerbich and normal erythrocytes
  Binding to neuraminidase-treated human erythrocytes: failure of neuraminidase-and trypsin-treated erythrocytes to bind
  Binding to Gerbich erythrocytes: bound normally
  Binding to Yus erythrocytes: bound normally
  Binding to trypsin-treated human erythrocytes: failure of neuraminidase-and trypsin-treated erythrocytes to bind

B3: VSTK: BAEBL region II variant (aa 143-606) expressed in COS cells; V185, S239, T261, K285 (protein)
chain: TFIQKRTHLFACGIKRKSIKWICRENSEKITVCVPDRKIQLCVANFLNSRLETMEKFKEIFLISVNTEAKLLYNKNEGKDPSIFCNELRNSFSDFRSSFIGDDMDFGGNTDRVKGYINTKFSDYYKEKNVEKLNNIKKEWWEKNKANLWNHMIVNHKGNISKECAIIPAEEPQINLWIKEWNENFLMEKKRLFLNIKDKCVENKKYEACFGGCRLPCSSYTSFMKKSKTQMEVLTNLYKKKNSGVDKNNFLNDLFKKNNKNDLDDFFKNEKEYDDLCDCRYTATIIKSFLNGPAKNDVDIASQINVNDLRGFGCNYKSNNEKSWNCTGTFTNKFPGTCEPPRRQTLCLGRTYLLHRGHEEDYKEHLLGASIYEAQLLKYKYKEKDENALCSIIQNSYADLADIIKGSDIIKDYYGKKMEENLNKVNKDKKRNEESLKIFREKWWDENKENVWKVMSAVLKNKET
[3]; Gerbich-negative RBC (exon 3 deletion of glycophorin C/D)
  Binding to Gerbich-negative RBC as percentage of binding to normal, untreated RBC: 0.9%
[3]; neuraminidase-treated normal RBC
  Binding to neuraminidase-treated normal RBC as percentage of binding to normal, untreated RBC: 0%
[3]; normal untreated RBC, region II (aa 143-606) expressed in COS cells
  Binding to normal RBC, untreated: COS cells with five or more attached RBC, total per coverslip: 65
[3]; trypsin-treated normal RBC
  Binding to trypsin-treated normal RBC as percentage of binding to normal, untreated RBC: 0%
